Target: T1, MST-Red-NLRP3 (UniProt Q96P20 1-1036, MST-Red label (position not given))
T1 construct: NLRP3 labelled with MST-Red for microscale thermophoresis
Experiment: MST; in solution; 50 nM MST-Red-NLRP3 titrated against increasing concentrations of IKKβ; two independent titrations
Conditions: both partners purified

T1 sequence (Q96P20 whole entry): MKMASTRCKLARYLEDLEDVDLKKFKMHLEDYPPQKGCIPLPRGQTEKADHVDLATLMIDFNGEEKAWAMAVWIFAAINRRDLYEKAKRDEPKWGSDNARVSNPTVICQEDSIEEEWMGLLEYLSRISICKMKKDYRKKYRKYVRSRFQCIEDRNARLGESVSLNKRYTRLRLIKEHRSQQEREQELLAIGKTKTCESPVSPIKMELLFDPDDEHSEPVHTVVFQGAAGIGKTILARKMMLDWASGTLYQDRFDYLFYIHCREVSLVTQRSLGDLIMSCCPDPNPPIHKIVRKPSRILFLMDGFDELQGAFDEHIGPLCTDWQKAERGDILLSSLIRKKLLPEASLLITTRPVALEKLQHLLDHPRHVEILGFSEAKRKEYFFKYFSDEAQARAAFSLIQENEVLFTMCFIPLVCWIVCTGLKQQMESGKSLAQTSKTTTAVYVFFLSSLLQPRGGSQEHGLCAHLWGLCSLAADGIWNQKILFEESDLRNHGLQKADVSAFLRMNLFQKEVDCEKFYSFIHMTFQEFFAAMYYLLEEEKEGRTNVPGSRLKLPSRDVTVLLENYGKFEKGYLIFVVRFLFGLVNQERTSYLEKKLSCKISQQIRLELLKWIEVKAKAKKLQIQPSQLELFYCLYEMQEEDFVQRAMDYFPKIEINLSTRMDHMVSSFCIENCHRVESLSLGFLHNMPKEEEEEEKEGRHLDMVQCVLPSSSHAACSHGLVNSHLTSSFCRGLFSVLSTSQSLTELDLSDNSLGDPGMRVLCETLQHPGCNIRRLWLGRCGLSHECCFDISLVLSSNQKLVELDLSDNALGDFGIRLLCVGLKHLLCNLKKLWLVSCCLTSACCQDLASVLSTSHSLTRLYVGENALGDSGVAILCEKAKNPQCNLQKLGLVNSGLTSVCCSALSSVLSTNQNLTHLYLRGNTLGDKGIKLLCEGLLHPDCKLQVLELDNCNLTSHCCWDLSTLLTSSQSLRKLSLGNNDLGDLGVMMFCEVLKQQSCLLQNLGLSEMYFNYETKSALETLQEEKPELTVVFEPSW

Kd: 1430 ± 350 nM
B1: IKKβ used for microscale thermophoresis (enzyme, UniProt O14920 1-756, looked up)
chain: MSWSPSLTTQTCGAWEMKERLGTGGFGNVIRWHNQETGEQIAIKQCRQELSPRNRERWCLEIQIMRRLTHPNVVAARDVPEGMQNLAPNDLPLLAMEYCQGGDLRKYLNQFENCCGLREGAILTLLSDIASALRYLHENRIIHRDLKPENIVLQQGEQRLIHKIIDLGYAKELDQGSLCTSFVGTLQYLAPELLEQQKYTVTVDYWSFGTLAFECITGFRPFLPNWQPVQWHSKVRQKSEVDIVVSEDLNGTVKFSSSLPYPNNLNSVLAERLEKWLQLMLMWHPRQRGTDPTYGPNGCFKALDDILNLKLVHILNMVTGTIHTYPVTEDESLQSLKARIQQDTGIPEEDQELLQEAGLALIPDKPATQCISDGKLNEGHTLDMDLVFLFDNSKITYETQISPRPQPESVSCILQEPKRNLAFFQLRKVWGQVWHSIQTLKEDCNRLQQGQRAAMMNLLRNNSCLSKMKNSMASMSQQLKAKLDFFKTSIQIDLEKYSEQTEFGITSDKLLLAWREMEQAVELCGRENEVKLLVERMMALQTDIVDLQRSPMGRKQGGTLDDLEEQARELYRRLREKPRDQRTEGDSQEMVRLLLQAIQSFEKKVRVIYTQLSKTVVCKQKALELLPKVEEVVSLMNEDEKTVVRLQEKRQKELWNLLKIACSKVRGPVSGSPDSMNASRLSQPGQLMSQPSTASNSLPEPAKKSEELVAEAHNLCTLLENAIQDTVREQDQSFTALDWSWLQTEEEEHSCLEQAS
notes: IKKβ titrated in MST

Reference: PMC9579124, “IKKβ binds NLRP3 providing a shortcut to inflammasome activation for rapid immune responses” (Signal Transduction and Targeted Therapy, 2022)
